Results on 53 sequences are retold here after the supplement of paper PMC10567573.

A short description of the series: protein stability index of a GFP-peptide fusion (GPS, HEK-293T) (PSI 1-6); higher = more stable.
The mark [1] stands for this setting: treatment: DMSO, c terminus: a fixed tail appended.
Where [2] appears, read: treatment: MLN4924 1 uM, 8 h, c terminus: a fixed tail appended.
Where [3] appears, read: treatment: DMSO, c terminus: native.
Setting [4] is: treatment: MLN4924 1 uM, 8 h, c terminus: native.

± gives the standard deviation.
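Also: 24-mer peptide tiles fused after GFP, lentivirally expressed, FACS-sorted into six equal bins by GFP/DsRed ratio, decoded by Illumina sequencing, PSI is the read-weighted mean bin number.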

The sequence CNCALEELRLVFGPLGDQLHAQLR [ELF3] gave a protein stability index under setting [1] of 2.46 ± 0.86 and a protein stability index under setting [2] of 2.33 ± 0.38.
In the same order, the values of CPVPAHRRGSWRLPYTDGLSWELL [CTBP1-DT] are 2.49 ± 0.34 and 2.59 ± 0.31.
Sequence CQEEQLRSHENKLRQLTAELAEHR [PSD2] showed a protein stability index under setting [1] of 4.41 ± 0.25 and a protein stability index under setting [2] of 4.34 ± 0.16.
For CQPRNLDKERAVLLQRRKRENMSD [KMT2E], in that order: 4.32 ± 0.13 and 4.29 ± 0.12.
In the same order, the values of CQSVLEDFNLCLFYLPSSPNLSLA [SMG5] are 2.5 ± 0.65 and 2.72 ± 0.63.
In the same order, the values of CWSRDGHKLVSASTDNIVSQWDVL [RBBP5] are 2.81 ± 0.12 and 2.87 ± 0.18.
In the case of CYVSRRLSQLSSHDPLWRRHCKKY [FBXO3], the protein stability index was 2.32 ± 0.12 under setting [1] and 2.4 ± 0.23 under setting [2].
In the same order, the values of DAPVPDCLGVHCDFHQGLLSFYNA [FSD1] are 2.41 ± 0.094 and 2.52 ± 0.26.
In the case of DDAVAGDFALINKLDIQCDLKTLS [ATE1], the protein stability index by setting is: under setting [1], 4.18 ± 0.34; under setting [2], 4 ± 0.17.
For DDSGKDKKKKTKKIKEKYIDQEEL [HSP90AB1], in that order: 5.39 ± 0.29 and 5.37 ± 0.32.
In the same order, the values of DDVEMKNGITQGDKLRALKSQRQP [CDC14A] are 4.91 ± 0.25 and 5.05 ± 0.25.
On to DDVRLLCHLTPSIYTEFPDETLRS [INTS3], for which the protein stability index is, setting by setting: under setting [1], 3.41 ± 0.2; under setting [2], 3.49 ± 0.54.
For DEAELDYLMDVLVGTQALERPPGP [SERTAD1], in that order: 3.74 ± 0.35 and 3.87 ± 0.33.
With DEGFIKEEERPLPEKEYQRQVWLL [KCNA1], the protein stability index is, setting by setting: under setting [1], 3.8 ± 0.28; under setting [2], 3.73 ± 0.24.
In the same order, the values of DEMQEVPNRVLAPEQSLKKTKTSE [SPANXN3] are 5.57 ± 0.2 and 5.59 ± 0.24.
For DEQAPQRQRLLADLLHNVSQNIAA [DFFB], in that order: 3.72 ± 0.16 and 3.58 ± 0.31.
As to DESLCPQHHEALSLFCYEDQEAVC [TRIM39], the protein stability index was 4.7 ± 0.057 under setting [1] and 4.69 ± 0.16 under setting [2].
For the sequence DFLCLLGVSYTFDNEDSELNGDYG [MIA2], the protein stability index runs as follows: under setting [1], 2.24 ± 0.39; under setting [2], 2.34 ± 0.44.
Regarding DGSKSEDELDQASTPTDVRDIDL [CCND2], the protein stability index runs as follows: under setting [3], 4.41 ± 0.26; under setting [4], 4.71 ± 0.33.
As for DHPLPEVAHVKHLSASQKALKEKE [COX4I1], the protein stability index was 5.43 ± 0.18 under setting [1] and 5.47 ± 0.17 under setting [2].
For DIIRKQVLGTKVDAERDGVKVPTT [CDC34], in that order: 4.2 ± 0.34 and 4.23 ± 0.17.
For the sequence DISETFNHANGLTLVSRAHQLVME [PPP2CA], the protein stability index is 2.79 ± 0.12 under setting [1] and 2.82 ± 0.29 under setting [2].
For DKDENKLSEASGGRAENGERSDLE [ZC3H15], in that order: 5.45 ± 0.24 and 5.45 ± 0.28.
In the same order, the values of DKELLCCSCQADPRHQGHRVQPVK [TRIM35] are 3.56 ± 0.32 and 4.06 ± 0.3.
In the same order, the values of DKKVRTIIIRSEVPGIFCAGADLK [AUH] are 2.12 ± 0.27 and 2.11 ± 0.38.
For DLPKAKTRAADLLVNPLDPRNADK [SRPK2], the protein stability index is 4.85 ± 0.24 under setting [1] and 5 ± 0.29 under setting [2].
For DLRHLRAVPTDEARAFAEKNGLSF [RAB11A], in that order: 3.54 ± 0.2 and 3.52 ± 0.22.
For DLRHLRAVPTDEARAFAEKNNLSF [RAB11B], in that order: 3.63 ± 0.15 and 3.54 ± 0.23.
In the same order, the values of DLVERALYSMECAFHPLFSLTSGA [TCF25] are 3.09 ± 1.3 and 2.84 ± 0.93.
DMENKENGSVGVKNSMENGRPPDP [SAMD13] had a protein stability index under setting [1] of 5.11 ± 0.27 and a protein stability index under setting [2] of 5.15 ± 0.32.
For DPACYEFLWGPRALIETSYVKVLH [MAGEA6], in that order: 2.26 ± 0.78 and 2.21 ± 0.22.
In the same order, the values of DPDFKDLGALKPLPACEFEMGGSE [NETO1] are 5.24 ± 0.22 and 5.27 ± 0.2.
Turning to DPLSDSDSMTSQAKPEALSSPKFR [ELOA2], the protein stability index worked out at 5.2 ± 0.23 under setting [1] and 5.27 ± 0.17 under setting [2].
As to DPPSSSEECPAHLLEDPLCADVIL [RHOBTB2], the protein stability index reads like this: under setting [1], 4.89 ± 0.21; under setting [2], 5.11 ± 0.23.
Regarding DPSTGCYMYYFQYLSKTYCVDATR [KMT5A], the protein stability index is, setting by setting: under setting [1], 2.25 ± 0.34; under setting [2], 2.18 ± 0.61.
For DQDDRRTWDGRPLTMAATFDDCLY [GFOD1], in that order: 3.74 ± 0.34 and 3.99 ± 0.22.
For the sequence DQNNVIENEETGEFSIDNYPTDNT [MIA2], the protein stability index turned out to be 5.21 ± 0.74 under setting [1] and 5.5 ± 0.17 under setting [2].
With DQTKSIVEKIQAKLPGIAKKKAE [RTN3], the protein stability index runs as follows: under setting [3], 5.46 ± 0.17; under setting [4], 5.56 ± 0.22.
Regarding DRFQVPTTEVNAWLVHRDPEGSVS [NFE2L1], the protein stability index reads like this: under setting [1], 3.842 ± 0.034; under setting [2], 4.5 ± 0.063.
DRKVLLKSDSPTGDVLLDETLKHI [GOLPH3L]: the protein stability index is 4.17 ± 0.16 under setting [1] and 4.54 ± 0.3 under setting [2].
In the same order, the values of DSAQVARLWGIRKNRPAMNYDKLS [SPDEF] are 3.24 ± 0.22 and 3.35 ± 0.23.
For DSDFRELHTAREFSEEDEEETTSQ [RTN2], in that order: 5.64 ± 0.17 and 5.5 ± 0.17.
For DSIKTEVSGCPEDLTVGRAPTADD [NOL4L], in that order: 5.63 ± 0.34 and 5.68 ± 0.15.
As to DSRIRFGFLTVTNLGVENMNHYKK [PTPN9], the protein stability index is 2.53 ± 0.19 under setting [1] and 2.7 ± 0.31 under setting [2].
For DVHNRIVIRGLNTIPLFVQLLYSP [CTNNB1], the protein stability index reads like this: under setting [1], 2.58 ± 0.58; under setting [2], 2.73 ± 0.5.
In the case of DVNKTDHSQRTALHLAAQKALRTI [INVS], the protein stability index by setting is: under setting [1], 3.06 ± 0.42; under setting [2], 3.44 ± 0.43.
Consider DYDLVLAEDEEMNRMHESMKLFDS [GNAI1], for which the protein stability index came to 4.42 ± 0.26 under setting [1] and 4.84 ± 0.33 under setting [2].
For DYLPLTALVDGQIFCLHGGLSPSI [PPP2CA], in that order: 2.58 ± 0.93 and 2.21 ± 0.41.
As to DYNPPRVQLSDEMFVFQDGRWVNE [CBY2], the protein stability index is, setting by setting: under setting [1], 4.48 ± 0.23; under setting [2], 4.37 ± 0.36.
In the same order, the values of DYSPYFKTIEDLRNKIIAATIENA [KRT16] are 2.33 ± 0.22 and 2.44 ± 0.42.
In the case of DYWNLQKDYYPINESLASLPLRVS [CLPTM1], the protein stability index was determined as 2.4 ± 0.2 under setting [1] and 2.52 ± 0.17 under setting [2].
Sequence EAELRRRDTFYKEQLERIERKNAE [CHCHD6] gave a protein stability index under setting [1] of 5.1 ± 0.41 and a protein stability index under setting [2] of 5.34 ± 0.28.
In the same order, the values of EAFTLMDQNRDGFIDKEDLKDTYA [MYL5] are 4.69 ± 0.25 and 4.88 ± 0.11.
